Like-named read-outs stand apart in the source and are kept apart here. Bridge positions count the residues as written; N and C are the ends. Square brackets hold non-standard residues; d marks the D form. Ends that are not written are not given here.

Experiment in all cases: cell-based or functional assay
Experiment [1] deals with T1, mouse CCK-B receptor (mouse, UniProt P56481 1-453).
T1 sequence (looked up): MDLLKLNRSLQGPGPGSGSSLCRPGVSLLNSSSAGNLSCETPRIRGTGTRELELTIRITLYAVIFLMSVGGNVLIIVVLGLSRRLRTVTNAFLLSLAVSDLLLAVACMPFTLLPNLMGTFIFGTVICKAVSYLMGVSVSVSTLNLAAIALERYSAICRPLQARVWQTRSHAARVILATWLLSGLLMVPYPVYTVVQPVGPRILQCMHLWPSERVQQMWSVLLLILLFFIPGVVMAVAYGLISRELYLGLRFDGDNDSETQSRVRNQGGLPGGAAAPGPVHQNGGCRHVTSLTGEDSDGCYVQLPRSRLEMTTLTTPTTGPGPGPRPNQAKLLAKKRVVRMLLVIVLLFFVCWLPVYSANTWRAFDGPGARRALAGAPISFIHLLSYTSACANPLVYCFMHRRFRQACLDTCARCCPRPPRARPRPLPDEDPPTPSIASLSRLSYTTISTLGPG

Experiment [2] has as its target T2, human CCK-B receptor (human, UniProt P32239 1-447).
T2 sequence (looked up): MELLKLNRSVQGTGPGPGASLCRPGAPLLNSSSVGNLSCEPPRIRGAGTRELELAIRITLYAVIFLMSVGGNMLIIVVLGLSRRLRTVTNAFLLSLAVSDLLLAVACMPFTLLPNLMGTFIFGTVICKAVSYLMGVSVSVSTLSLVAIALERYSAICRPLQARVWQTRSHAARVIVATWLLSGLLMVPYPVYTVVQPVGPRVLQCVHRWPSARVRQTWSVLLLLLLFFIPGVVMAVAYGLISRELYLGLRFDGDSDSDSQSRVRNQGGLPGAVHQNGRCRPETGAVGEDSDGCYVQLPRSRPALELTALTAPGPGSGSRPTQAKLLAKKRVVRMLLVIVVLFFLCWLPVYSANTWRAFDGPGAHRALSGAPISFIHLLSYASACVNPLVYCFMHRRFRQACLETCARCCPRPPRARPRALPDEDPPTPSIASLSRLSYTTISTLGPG

Experiment [3] deals with T1, mouse CCK-B receptor. The source holds these as a separate data set.
Experiment [4] has as its target T2, human CCK-B receptor. The source holds these as a separate data set.
In experiment [5] the target is T3, human GLP-1 receptor (human, UniProt P43220 24-463).
Target sequence in this assay (P43220 24-463): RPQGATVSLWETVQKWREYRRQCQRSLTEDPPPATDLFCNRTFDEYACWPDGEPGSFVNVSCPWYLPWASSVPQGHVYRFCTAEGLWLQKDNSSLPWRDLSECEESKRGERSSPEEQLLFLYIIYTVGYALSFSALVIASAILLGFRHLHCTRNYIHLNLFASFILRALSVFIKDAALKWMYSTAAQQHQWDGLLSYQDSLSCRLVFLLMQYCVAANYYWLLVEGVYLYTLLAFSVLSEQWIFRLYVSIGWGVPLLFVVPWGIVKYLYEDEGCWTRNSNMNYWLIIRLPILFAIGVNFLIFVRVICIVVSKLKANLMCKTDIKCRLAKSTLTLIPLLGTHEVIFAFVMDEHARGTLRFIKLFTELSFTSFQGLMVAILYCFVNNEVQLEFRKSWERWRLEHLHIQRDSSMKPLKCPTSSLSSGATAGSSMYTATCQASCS
Experiment [6] deals with T3, human GLP-1 receptor. This is another data set of the same source.
The target of experiment [7] is T2, human CCK-B receptor. This is another data set of the same source.

In the case of “GLP-1(7-36)-8Aoc-SKK-[Gln1,Leu15]Gastrin17 (peptide)”, the figures for the mCCK-B R EC50 (p-ERK) with mouse CCK-B receptor [1] and in the experiment with mouse CCK-B receptor [3] were 83 nM and 82.5 nM, respectively. Also, the hCCK-B R EC50 (p-ERK) with human CCK-B receptor [2] came to 52 nM; with human CCK-B receptor [4] it was 51.9 nM.
As to “[Lys(Hexadecanoyl-isoGlu)26]GLP-1(7-37)-Peg3-Peg3-[Leu4]Gastrin6 (peptide)”, the hCCK-B R EC50 (p-ERK) with human CCK-B receptor [2] was determined as 26 nM.
For “CCK-8 (from UniProt P06307 96-103) (peptide)”, the results for the mCCK-B R EC50 (p-ERK) with mouse CCK-B receptor [1] and with mouse CCK-B receptor [3] were 160 nM and 163 nM, respectively.
Regarding “GLP-1(7-36)-Peg3-SKK-[Gln1,Leu15]Gastrin17 (peptide)”, the mCCK-B R EC50 (p-ERK) in the experiment with mouse CCK-B receptor [1] was 51 nM; with mouse CCK-B receptor [3], 51.1 nM. Also, the figures for the hCCK-B R EC50 (p-ERK) in the experiment with human CCK-B receptor [2] and in the experiment with human CCK-B receptor [4] were 8.8 nM and 8.76 nM, respectively.
Taken in the same sequence, the figures for “GLP-1(7-36)-DBF-SKK-[Gln1,Leu15]Gastrin17 (peptide)” were 87 nM, 86.9 nM, 26 nM and 25.7 nM.
As for h[Gln1,Leu15]Gastrin17 (peptide), the mCCK-B R EC50 (p-ERK) in the experiment with mouse CCK-B receptor [1] worked out at 18 nM; with mouse CCK-B receptor [3] it was 18.2 nM.
In turn, “[Arg34,Lys(Hexadecanoyl-isoGlu)26]GLP-1(7-37)-Peg3-Peg3-[Leu4]Gastrin6 (peptide)” gave a hCCK-B R EC50 (p-ERK) with human CCK-B receptor [2] of 29 nM.
As for “GLP-1(7-36)-Peg3-Peg3-[Gln1,Leu15]Gastrin17 (peptide)”, the results for the mCCK-B R EC50 (p-ERK) in the experiment with mouse CCK-B receptor [1] and in the experiment with mouse CCK-B receptor [3] were 58 nM and 58.3 nM, respectively. This molecule yielded a hCCK-B R EC50 (p-ERK) in the experiment with human CCK-B receptor [2] of 8.2 nM.
As to “[Lys(Hexadecanoyl-isoGlu)34]GLP-1(7-37)-Peg3-Peg3-[Leu4]Gastrin6 (peptide)”, the hCCK-B R EC50 (p-ERK) in the experiment with human CCK-B receptor [2] came out at 18 nM.
On to “[Arg26,34,Lys(Hexadecanoyl-isoGlu)36]GLP-1(7-37)-Peg3-Peg3-[Leu4]Gastrin6 (peptide)”, for which the hGLP-1 R EC50 (cAMP) with human GLP-1 receptor [5] worked out at 0.11 nM. For the same molecule, in the experiment with human CCK-B receptor [2], the hCCK-B R EC50 (p-ERK) is 78 nM.
Molecule “h[Leu15]Gastrin17 (from UniProt P01350 76-92) (peptide)” yielded a hCCK-B R EC50 (p-ERK) with human CCK-B receptor [2] of 2.4 nM.
On to “[Arg34]GLP-1(7-37)-Peg3-Peg3-[Leu4]Gastrin6 (peptide)”, for which, in the experiment with human CCK-B receptor [2], the hCCK-B R EC50 (p-ERK) was 24 nM.
Regarding “[Aib8,Arg34,Lys(Hexadecanoyl-isoGlu)26]GLP-1(7-37)-Peg3-Peg3-[Leu4]Gastrin6 (peptide)”, the hGLP-1 R EC50 (cAMP) in the experiment with human GLP-1 receptor [5] is 0.088 nM. In the experiment with human CCK-B receptor [2], the hCCK-B R EC50 (p-ERK) was 59 nM.
“[Arg26,34,Gly8,Lys(Hexadecanoyl-isoGlu)36]GLP-1(7-37)-Peg3-Peg3-[Leu4]Gastrin6 (peptide)” displayed a hGLP-1 R EC50 (cAMP) with human GLP-1 receptor [5] of 0.12 nM. In the experiment with human CCK-B receptor [2], the hCCK-B R EC50 (p-ERK) came to 29 nM.
“[Aib8,Arg34]GLP-1(7-37)-Peg3-Peg3-[Leu4]Gastrin6 (peptide)”: in the experiment with human GLP-1 receptor [5], the hGLP-1 R EC50 (cAMP) came out at 0.043 nM. The molecule further registered a hCCK-B R EC50 (p-ERK) with human CCK-B receptor [2] of 42 nM.
Consider “GLP-1(7-36)-8Aoc-8Aoc-[Gln1,Leu15]Gastrin17 (peptide)”, for which the mCCK-B R EC50 (p-ERK) with mouse CCK-B receptor [1] is 71 nM; with mouse CCK-B receptor [3], 71.4 nM. Also, the hCCK-B R EC50 (p-ERK) with human CCK-B receptor [2] was determined as 13 nM; in the experiment with human CCK-B receptor [4] it was 12.8 nM.
Regarding HGEGTFTSDLSKQLEEEAVRLFIEFLKXXYGWLDF (Peg3-Peg3 linker; C-terminal amide) [[Leu14,Phe25]Exendin-4(1-27)-Peg3-Peg3-[Leu4]Gastrin6], in the experiment with human GLP-1 receptor [6], the “hGLP-1 R EC50 (cAMP)” value turned out to be 0.026 nM. For the same molecule, in the experiment with human CCK-B receptor [7], the “hCCK-B R EC50 (p-ERK)” value is 7.9 nM.
As to HGEGTFTSDLSKYMEEEAVRLFIEFLK[Peg3][Peg3]YGWLDF-NH2 [[Tyr13,Phe25]Exendin-4(1-27)-Peg3-Peg3-[Leu4]Gastrin6], in the experiment with human GLP-1 receptor [6], the “hGLP-1 R EC50 (cAMP)” value was 0.035 nM. The “hCCK-B R EC50 (p-ERK)” value in the experiment with human CCK-B receptor [7] amounted to 8.4 nM.
For HGEGTFTSDLSKQMEKEAVRLFIEWLKN[Peg3][Peg3]YGWLDF-NH2 [[Lys16]Exendin-4(1-28)-Peg3-Peg3-[Leu4]Gastrin6] the same measures were 0.032 nM and 15 nM.
In the case of HGEGTFTSDLSKQMEEEAVKLFIEWLKN[Peg3][Peg3]YGWLDF-NH2 (lactam 20-24) [Side chain-cyclo([Lys20,Glu24]Exendin-4(1-28)-Peg3-Peg3-[Leu4]Gastrin6], the “hGLP-1 R EC50 (cAMP)” value in the experiment with human GLP-1 receptor [6] is 0.032 nM. Besides, the “hCCK-B R EC50 (p-ERK)” value with human CCK-B receptor [7] was 4 nM.

The values above are taken from US20130143793A1 (ZEALAND PHARMA A S, published 2013).
